This passage reports fold increase in binding affinity against the chimeric antibody, Ka and fold increase in binding affinity against the chimeric (or murine) antibody results from patent US6933368.

For this test, the target named is CD33 antigen (UniProt P20138). Nature of the test: competitive binding against 125I-murine M195 on HL60 cells.
Chain of UniProt P20138 (P20138 18-364 limits assumed): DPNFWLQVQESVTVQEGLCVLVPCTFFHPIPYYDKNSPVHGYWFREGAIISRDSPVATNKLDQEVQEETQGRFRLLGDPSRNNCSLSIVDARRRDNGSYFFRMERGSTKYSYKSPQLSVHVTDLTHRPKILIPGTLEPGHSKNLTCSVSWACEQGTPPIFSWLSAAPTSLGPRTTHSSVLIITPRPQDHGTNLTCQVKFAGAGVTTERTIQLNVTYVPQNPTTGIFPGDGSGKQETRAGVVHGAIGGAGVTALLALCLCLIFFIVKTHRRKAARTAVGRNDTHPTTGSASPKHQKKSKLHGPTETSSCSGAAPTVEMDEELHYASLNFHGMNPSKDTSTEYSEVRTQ

In the case of aglycosylated chimeric M195 antibody, the fold increase in binding affinity against the chimeric antibody worked out at 8 fold.

In turn, murine M195 antibody showed a Ka of 2e+09 M⁻¹.

B1: humanized M195 antibody (antibody, INN chains, looked up, human IgG1, V domains shown)
VH: QVQLVQSGAEVKKPGSSVKVSCKASGYTFTDYNMHWVRQAPGQGLEWIGYIYPYNGGTGYNQKFKSKATITADESTNTAYMELSSLRSEDTAVYYCARGRPAMDYWGQGTLVTVSS
VL: DIQMTQSPSSLSASVGDRVTITCRASESVDNYGISFMNWFQQKPGKAPKLLIYAASNQGSGVPSRFSGSGSGTDFTLTISSLQPDDFATYYCQQSKEVPWTFGQGTKVEIK
Consider B1, for which the fold increase in binding affinity against the chimeric (or murine) antibody was found to be 8 fold.
